These results are taken from patent US10400030B2.

The test deals with IL-17RA Fc fusion protein (human) (UniProt Q96F46). The experiment in a line: BIAcore T200, IL-17RA Fc fusion captured on protein G surface, single-cycle kinetics.

B1: clone 2.2 VH (VHH)
VHH: QVQLVQSGAEVKKPGASVKVSCKASGYPFTSYDINWVRQATGRSLEWMGWMNPTNGNTVYAQKFQDRVTMTRNTSISTAYMELSSLRSEDTAVYFCARGRRDDWKNNYWGQGTLVTVSS
In the case of B1, the fold improved affinity against clone 2.1 stood at 5 fold.
